Test results reported in patent US20020141999A1.

What was measured:
[1] = biological target: human CD7, full length, on cells (human) (UniProt P09564); test: flow cytometry, control Fc on Jurkat cells (express CD7), non-blocked
[2] = biological target: human CD7, full length, on cells (human) (UniProt P09564); test: flow cytometry, control IgG staining of Jurkat cells (express CD7), non-blocked
[3] = biological target: human CD7, full length, on cells (human) (UniProt P09564); test: flow cytometry, control IgG on Jurkat cells (express CD7), non-blocked
[4] = biological target: human CD7, full length, on cells (human) (UniProt P09564); test: flow cytometry, antibody staining of Jurkat cells (express CD7), non-blocked
[5] = biological target: human CD7, full length, on cells (human) (UniProt P09564); test: flow cytometry, antibody staining of Jurkat cells preincubated with HuK12-Fc (competitor)

human CD7, full length, on cells (human), sequence (P09564 26-240 limits assumed): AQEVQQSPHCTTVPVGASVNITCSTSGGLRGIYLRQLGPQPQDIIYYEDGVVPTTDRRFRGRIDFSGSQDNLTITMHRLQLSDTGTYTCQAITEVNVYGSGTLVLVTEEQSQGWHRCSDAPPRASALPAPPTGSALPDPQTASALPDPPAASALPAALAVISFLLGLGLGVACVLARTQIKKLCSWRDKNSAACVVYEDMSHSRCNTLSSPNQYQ

% Positive Cells [1] [%]	MFI [1]	% Positive Cells [2] [%]	MFI [2]	% Positive Cells [3] [%]	MFI [3]	% Positive Cells [4] [%]	MFI [4]	% Positive Cells [5] [%]	MFI [5]	Substance
3.4	18									Control Fc (Fc fusion)
						88	38	4	19	anti-human CD7 monoclonal antibody Clone 4H9 (Pharmingen)
						80	30	63	24	anti-human CD7 monoclonal antibody Clone CLB-3A1 (Research Diagnostics, Inc.)
						78	27	12	19	anti-human CD7 monoclonal antibody Clone M-T701 (Becton Dickinson)

Further lines, the substance ahead of its results:

Substance	% Positive Cells [1] [%]	MFI [1]	% Positive Cells [2] [%]	MFI [2]	% Positive Cells [3] [%]	MFI [3]	% Positive Cells [4] [%]	MFI [4]	% Positive Cells [5] [%]	MFI [5]
IgG Control (antibody)			3	18	3.6	17				
anti-human CD7 monoclonal antibody Clone 8118.1 (Immunotech)							78	27	8	24
anti-human CD7 monoclonal antibody Clone RFT-2a (Research Diagnostics, Inc.)							71	23	9	18
anti-human CD7 monoclonal antibody Clone WM31 (Research Diagnostics, Inc.)							62	22	11	18
